# Data taken from the nanobody polyreactivity screen of Harvey et al. (2022).
# Test: yeast display, Sf9 membrane polyspecificity reagent, FACS + sequencing; frameworks hold sequencing errors
# Outline: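 Sorting gates, low and high (top ~1%), were placed on anti-HA fluorescence to track expression and on streptavidin fluorescence to track reagent binding. A clone's polyreactivity label is taken from the gate it came out of. The reagent was 10% biotinylated, detergent-solubilized Sf9 membrane, applied for 1 hour at 4 °C to galactose-induced yeast display cells.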
row,Sequence,polyreactivity (PSR sort gate)
1,QVQLVESGGGLVQAGGSLRLSCAASGSIFGYYAMGWYRQAPGKEREFVAAITSRVGRTHYADSVKGRFTISRDNAKNTVYLQMNSLKPEDTAVYYCAAEVRQYYRRGYYWGQGTQVTVSS,high polyreactivity
2,QVQLVESGGGLVQAGGSLRLSCAASGSIFGYYAMGWYRQAPGKERELVAAINRDGGSTYYADSVKGRFTISRDNAKNTVYLQMNSLKPEDTAVYYCAAVVRRPGPGRMDYWGQGTQVTVSS,low polyreactivity
3,QVQLVESGGGLVQAGGSLRLSCAASGSIFGYYAMGWYRQAPGKERELVAAISSGGNTNYADSVNGRFTISRDNAKITVYLQMTSLKPEDTAVYDCATRARYKRIRYDYWGQGTKVTVSS,high polyreactivity
4,QVQLVESGGGLVQAGGSLRLSCAASGSIFGYYAMGWYRQAPGKERELVAAISWSGGRTYYADSVKGRFTISRDNAKNTVYLQMNSLKPEDTAVYYCNARWRSGPRAYDYWGQGTQVTVSS,high polyreactivity
5,QVQLVESGGGLVQAGGSLRLSCAASGSIFGYYAMGWYRQAPGKERELVASIRRGSSTNYADSVKGRFTISRDNAKHTVYLQMNSLKPEDTAVYYCNAVLLSYDGRGYSNLYDYWGQGTQVTVSS,low polyreactivity
6,QVQLVESGGGLVQAGGSLRLSCAASGSIFGYYAMGWYRQAPGKERELVASISGSGGTTYYADSVKGRFTISRDNAKNTVYLQMNSLKPEDTAVYYCAARRSIYGYPFVTSRRGYWGQGTQVTVSS,high polyreactivity
7,QVQLVESGGGLVQAGGSLRLSCAASGSIFGYYAMGWYRQAPGTERELVAAINSDGSTDYADSVKGRFTISRDNAKNTVYLQMNSLKPEDTAVYYCATRYYSIFTFFISYTYDYWGQGTQVTVSS,low polyreactivity
8,QVQLVESGGGLVQAGGSLRLSCAASGSIFGYYAMGWYRQEPGKERELVAAITRSGGSTYYADSVKGRFTISRDNAKNPVYLQMNSLKPEDTAVYYCNAVRYAVRLPAFPGYDYWGQGTQVTVSS,high polyreactivity
9,QVQLVESGGGLVQAGGSLRLSCAASGSIFGYYSMGWYRQAPGKERELVAAISRSGTRTYYADSVKGRFTISRDNAKNTVYVQMNSLKPEDTAVYYCNAVQQYYGTWGYGYWGQGTQVSVSS,high polyreactivity
10,QVQLVESGGGLVQAGGSLRLSCAASGSIFGYYTMGWYRQAAGKERELVAAITLDTGNTYYADSVKGRLTITRDNAKNTVYLQMNSLKPEDTAVYYCNTDYYSGYIARWSFDYWGQGTQVTVSS,low polyreactivity
11,QVQLVESGGGLVQAGGSLRLSCAASGSIFGYYVMGWYRQAPGKERELVAAITKSGGSTYYADSVKGRFTISRDNAKNTVYLQKNSLKPEDTAVYYCAKRFYSTGYGRFDYWGQGTQVTVSS,high polyreactivity
12,QVQLVESGGGLVQAGGSLRLSCAASGSIFHANAMGWYRQAPGKERELVAVISQGGGSTYYADSVKGRFTISRDNAKNTVYLQMNSLKPEDTAFYYCAAYYYYSAYGDDYWGQGTQVTVSS,high polyreactivity
13,QVQLVESGGGLVQAGGSLRLSCAASGSIFHAYAMGWYRQAPGKERELDAAISYTGGTYYADSVKGRFTISRDNAKNTVYLQMNSLKPEDTAVYYCAIVTRYLHIGVPYVEFDYWGQGTQVTVSS,low polyreactivity
14,QVQLVESGGGLVQAGGSLRLSCAASGSIFHFYAMGWYRQAPGKERELVAAITSGTSTYYADSVKGRFTISRDNAKNTVYLQMNSLKPEDTAVYYCAAEASHYYYNAYPSYGGSDYWGQGTQVTVSS,low polyreactivity
15,QVQLVESGGGLVQAGGSLRLSCAASGSIFHFYVMGWYRQAPGKERELVAGISSSGGRTYYADSVKGRFTISRDNAKNTFYLQMNSLKPEDTAVYYCANDMYHSVGRYDYWGQGTQVTVSS,low polyreactivity
16,QVQLVESGGGLVQAGGSLRLSCAASGSIFHGNAMGWYRQAPGKERELVAAITARGGRTYYADSVKGRFTISRDNAKNTVYLQMNSLKPEDTAVYYCNAVHRYERDYWGQGTQVTVSS,high polyreactivity
17,QVQLVESGGGLVQAGGSLRLSCAASGSIFHGYAMGWYRQAPGKERELVAAITYSGGRTYYADSVKGRFTISRDNAKNTVYLQMNSLKPEDTAVYYCAALTRRVKKYDYWGQGTQVTVSS,high polyreactivity
18,QVQLVESGGGLVQAGGSLRLSCAASGSIFHGYTMGWYIQSPGKERELVAAISRRGDSTYYADSVKGRFTISRDNAKNTVYLQMNSLKPEDTAVYYCATVFYRTRYVPYGYWGQGTQVTVSS,low polyreactivity
19,QVQLVESGGGLVQAGGSLRLSCAASGSIFHNYDMGWYRQAPGKERELVADISRGGDTNYADSVKGRFTISRDNAKNTVYLQMNSLKPEDTAVYYCNATYWILDSPWWRETFDYWGQGTQVTVSS,low polyreactivity
20,QVQLVESGGGLVQAGGSLRLSCAASGSIFHPYTMGWYRQAPGKERELVAAISWSGGNTNYADSVNGRFTISRDNAKNTVYLQMNSLKPDDTAVYYCNKATNLSGGYDSWGQGTQVTVSS,low polyreactivity
21,QVQLVESGGGLVQAGGSLRLSCAASGSIFHPYTMGWYRQAPGKERELVAGISQSSDSTYYADSVKGRFTISRDNAKNTVYLQMNSLKPEDTAVYYCNRDNDWPLSVVEVDYWGQGTQVTVSS,low polyreactivity
22,QVQLVESGGGLVQAGGSLRLSCAASGSIFHSYAMGWYRQAPGKERELVAGITSSCDRTNYADSVKGRFTISRDNAKITVYLQMNSLKPEDNAVYYCAAVARYPKGRTRRGYGYWGQGTQVTVSS,high polyreactivity

row,Sequence,polyreactivity (PSR sort gate)
1,QVQLVESGGGLVQAGGSLRLSCAASGSIFHTYVMGWYRQAPGKERELVASITRSGGSTYYADSVKGRFTISRDNAKKTVYLQMNSLKPEDTAVYYCAATYRTANHRYYYWGQGTQVTVSS,high polyreactivity
2,QVQLVESGGGLVQAGGSLRLSCAASGSIFHVNAMGWYRQAPGKERELVAGISDGGSTYYADSVKGRFTISRDNAKNTVYLQMNSLKPEDTAVSYCAAESEQWYSYVLSYVWEYDYWGQGTHVTVSS,low polyreactivity
3,QVQLVESGGGLVQAGGSLRLSCAASGSIFHWNAKGWYRQAPGKERELVAGITTSGGTTYYADSVKGRFTISRDNAKNTVYLQMNSLKPEDTAVYYCAARIIRWRPRWPSYGKYDYWGQGTQVTVSS,low polyreactivity
4,QVQLVESGGGLVQAGGSLRLSCAASGSIFHWYAMGWYRQAPGKERELVAAITWSGDTTYYADSVKGRFTISRDNAKNTVYLQMNSLKPEDTAVYYCAVERDDQDYDYWGQGTQVTVSS,low polyreactivity
5,QVQLVESGGGLVQAGGSLRLSCAASGSIFHYNAMGWYRQAPGKERELVAAISTSGGSTYYADSVKGRFTISRDNAKNTVYLQMNSLKPEDTAVYYCNAYHRYRRLEMYYWGQGTQVTVSS,high polyreactivity
6,QVQLVESGGGLVQAGGSLRLSCAASGSIFHYNAMGWYRQAPGKERELVARISVNGGRTYYADSVKGRFTISRDNAKNTVYLQMNSLKPEDTEVYYCAVEGVWRSFFYGYDSWGQGTQVTVSS,low polyreactivity
7,QVQLVESGGGLVQAGGSLRLSCAASGSIFHYYAMGWYRPAPGKERELVAAISWSGGRTYYADSVKGRFTISRDNAKNTVYLQMNSLKPEDTAVYYCAAARGESYEFYSWGQGTQVTVSS,high polyreactivity
8,QVQLVESGGGLVQAGGSLRLSCAASGSIFIANAMGWYRQAPGKERELVATISWSGGRTYYADSVKGRFTISRDNAKNTVYLQMNSLKPEDTAVYYCAAVYGAYDSGYKYNYWGQGTQVTVSS,high polyreactivity
9,QVQLVESGGGLVQAGGSLRLSCAASGSIFIFNAMGWYRQAPGKEREFVARIRRDSSTYYADSVKGRFTISRDNAKNTVYLQMNSLKPEDTAVYYCADKRVYRRVELNSWGQGTQVTVSS,low polyreactivity
10,QVQLVESGGGLVQAGGSLRLSCAASGSIFIFYAMGWYRQAPGNERELVADITSDGASTYYADSVKGRFTISRDNAKNTVYLQMNSLKPEDTAVYYCAADYIDSSAYDYWGQGTQVTVSS,low polyreactivity
11,QVQLVESGGGLVQAGGSLRLSCAASGSIFIGNAMGWYRQAPGKERELVAVISKGGGRTYYADSVKGRFTISRDNAKNTVYLQMNSLKPEDSAVYYCNTRNPHRGDYWGQGTQVTVSS,high polyreactivity
12,QVQLVESGGGLVQAGGSLRLSCAASGSIFIGYAIGWYRQAPGKERELVAAITNGGRTYFADSVKGRFTISRDNAKNTVYLQMISLKPEDTAVYYCAAVPSQTYRRTPYLWHDYWGQGTQVTVSS,high polyreactivity
13,QVQLVESGGGLVQAGGSLRLSCAASGSIFIGYAMGWYRQAPGKERELVAAITSGSITNYADSVKGRFTISRDNAKNTVYLQMNSLKPEDTAVYYCAADIYTYLGAYYIGYYWGQGTQVTVSS,low polyreactivity
14,QVQLVESGGGLVQAGGSLRLSCAASGSIFIGYARGWYRQAPGKERELVAGISWSGGSTYYADSVKGRFSISRDNAKNTVYLQMNSLKPEDTAVYYCNADITLYYFWAWTYGYYYWGQGTQVTVSS,high polyreactivity
15,QVQLVESGGGLVQAGGSLRLSCAASGSIFILNAMGWYRQAPGKERELVAAISSSGGSTYYADSVMGRFTISRDNAKYTDYLQMNSLKPEDSAVYYCAAERNYYFLFPYDSWGQGTQVTVSS,high polyreactivity
16,QVQLVESGGGLVQAGGSLRLSCAASGSIFINNAMGWYRQAPGKERELVAAISSSGTTYYADSVKGRFTISRDNAKNSVYLQMNSLKPEDTAVYYCNARYSLHSYYCFIYDSWGQGTKVTVSS,low polyreactivity
17,QVQLVESGGGLVQAGGSLRLSCAASGSIFINYAMGWYRQAPGKERELVAAISKNGGNTYYADSVKGRFTISRDNAKNTVYLQMNSLKPEDTAVYYCNYDYWGQGTQVTVSS,low polyreactivity
18,QVQLVESGGGLVQAGGSLRLSCAASGSIFIPNAMGWYRQAPGKERELVAAISLSDTTTYYADSVKGRFTISRDNAKNTVYLKMNSLKPEDTAVYYCAADYWFYPTSPDMDYLGQGTQVTVSS,low polyreactivity
19,QVQLVESGGGLVQAGGSLRLSCAASGSIFIQYAMGWYRQAPGKERELVAAITGSGGSTYYADSVKGRFTISRDNAKNTVYLQMNSLKPEDTAVYYCATEFKRGYVGFDYWGQGTQVTVSS,low polyreactivity
20,QVQLVESGGGLVQAGGSLRLSCAASGSIFIRNAMGWYRQAPGKERELVAAITSGGNTYYADSVKGRFTISRDNAKNTVYFQMNSLKPEDTAVWGQGTQVTLSS,low polyreactivity
21,QVQLVESGGGLVQAGGSLRLSCAASGSIFISYAMGWYRQAPGKARELVAAISRSGGSTYYADSVKGRFTISRDNAKNTVYLQMNSLKPEDTAVYYCAARSYPGKAGMGYWGQGTQVTVSS,high polyreactivity
